Experimental data from patent US20240383989A1 (PHARMABCINE, published 2024).
Changes are numbered by the printed parent chain.

How the values were obtained:
[1] = biological target: human KDR1 to 3 domain (human) (UniProt P35968); experiment: BLI (Octet), KDR1 to 3 domains on biosensor, scFv added, off-rate screening
[2] = biological target: human KDR1 to 3 domain (human) (UniProt P35968); experiment: BLI (Octet), antibody on biosensor, human KDR1 to 3 as analyte
human KDR1 to 3 domain [3] = biological target: T1, human KDR1 to 3 domain (human, UniProt P35968 20-327, limits assumed); experiment: BLI (Octet), KDR1 to 3 domains on biosensor, scFv added, off-rate screening
T1 construct: domain: KDR1 to 3 domain; The panning antigen was KDR1 to 3 domain-Fc; Treated as one molecule; also called KDR1 to 3 domains; KDR D1 to D3

human KDR1 to 3 domain [4] = biological target: T1, human KDR1 to 3 domain; experiment: BLI (Octet), antibody on biosensor, human KDR1 to 3 as analyte
Method: The binding of the selected antibodies to the KDR1 to 3 domain was measured using the Octet system (Fortebio Inc. US).

T1 sequence (P35968 20-327 limits assumed): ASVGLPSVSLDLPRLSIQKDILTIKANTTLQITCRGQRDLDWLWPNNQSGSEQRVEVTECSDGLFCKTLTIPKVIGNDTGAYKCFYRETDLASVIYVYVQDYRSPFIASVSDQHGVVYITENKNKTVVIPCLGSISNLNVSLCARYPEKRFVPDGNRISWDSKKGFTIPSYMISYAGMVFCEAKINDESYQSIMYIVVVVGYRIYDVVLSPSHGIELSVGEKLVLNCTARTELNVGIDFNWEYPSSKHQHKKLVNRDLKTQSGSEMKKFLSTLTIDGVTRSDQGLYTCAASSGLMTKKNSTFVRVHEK
Chain of human KDR1 to 3 domain (human) (P35968 20-327 limits assumed): as above

B1: 6A6 (scFv) (scFv, from another filing, V domains shown)
VH: QMQLVQSGAEVKKPGASVKLSCKASGYTFSSYWMHWVRQAPGQRLEWMGEINPGNGHTNYNEKFKSRVTITVDKSASTAYMELSSLRSEDTAVYYCAKIWGPSLTSPFDYWGQGTLVTVSS
VL: SNFMLTQPPSVSVSPGKTARITCRGDNLGDVNVHWYQQRPGQAPVLVMYYDADRPSGIPERFSGSNSGNTATLTISGVEAGDEADYYCQVWDRTSEYVFGTGTKVTVLG
In the case of B1, the koff [1] is reported as 0.000266 s⁻¹.

B2: 6A6 (IgG) (antibody, from another filing, V domains shown)
VH: B1 VH
VL: B1 VL
For B2, the Kd [2] was 13.2 nM, the koff [2] was 0.00168 s⁻¹ and the kon [2] was 127000 M⁻¹ s⁻¹.

B3: D4 (scFv) (scFv, part only; not given: scFv linker, domain order, tags, V domains shown, not shown: another chain or arm of the molecule; small tags and cut ends)
VH: EVQLVESGGGLVQPGGSLRLSCAASGYTFSSYWMSWVRQAPGKGLEWVSEINPGNGHTNYNEKFKSRFTISRDKSKNTLYLQMNSLRAEDTAVYYCARHWGPSLTSPFDYWGQGTLVTVSS
VL: DIQMTQSPSSLSASVGDRVTITCRADNLGDVNVHWYQQKPGKAPKLLIYYDADRPSGVPSRFSGSNSGNDATLTISSLQPEDFATYYCQAPTNNDPYTFGQGTKVEIK
Binder B3 has a koff (human KDR1 to 3 domain [3]) of 0.000165 s⁻¹.

B4: A5 (scFv) (scFv, part only; not given: scFv linker, domain order, tags, V domains shown, not shown: another chain or arm of the molecule; small tags and cut ends)
VH: B3 VH
VL: B3 VL with N93T, N94H, D95L
In the case of B4, the koff (human KDR1 to 3 domain [3]) is reported as 0.000187 s⁻¹.

B5: D3 (scFv) (scFv, part only; not given: scFv linker, domain order, tags, V domains shown, not shown: another chain or arm of the molecule; small tags and cut ends)
VH: B3 VH
VL: B3 VL with N93K, D95V
With B5 the koff (human KDR1 to 3 domain [3]) was 0.00015 s⁻¹.

B6: D4 (IgG) (antibody, V domains shown)
VH: B3 VH
VL: DIQMTQSPSSLSASVGDRVTITCRADNLGDVNVHWYQQKPGKAPKLLIYYDADRPSGVPSRFSGSNSGNDATLTISSLQPEDFATYYCQAPTNNDPYTFGQGTKVEIKR
notes: Converted to IgG with the pfusess-hchg1 (human IgG1) and pfuse2ss-hclk (human kappa) vectors
For B6, the Kd (human KDR1 to 3 domain [4]) was 0.366 nM and the koff (human KDR1 to 3 domain [4]) was 3.45e-05 s⁻¹.

B7: A5 (IgG) (antibody, V domains shown)
VH: B3 VH
VL: B6 VL with N93T, N94H, D95L
notes: as for B6
Work on B7 yielded a Kd (human KDR1 to 3 domain [4]) of 0.886 nM and a koff (human KDR1 to 3 domain [4]) of 8.86e-05 s⁻¹.

B8: D3 (IgG) (antibody, V domains shown)
VH: B3 VH
VL: B6 VL with N93K, D95V
notes: as for B6
Work on B8 yielded a Kd (human KDR1 to 3 domain [4]) of 0.773 nM, a koff (human KDR1 to 3 domain [4]) of 8.67e-05 s⁻¹ and a kon (human KDR1 to 3 domain [4]) of 112000 M⁻¹ s⁻¹.

B9: LH-E7 (IgG) (antibody, V domains shown)
VH: B3 VH
VL: B6 VL with N93R, N94I, D95A
notes: Converted to IgG; VH was cloned into Invivogen pfusess-hchg1 (human IgG1 heavy constant) and VL into pfuse2ss-hclk (human kappa constant); also called LH-67; LH-ET
Binder B9 has a Kd (human KDR1 to 3 domain [4]) of 1.3 nM, a koff (human KDR1 to 3 domain [4]) of 6.55e-05 s⁻¹ and a kon (human KDR1 to 3 domain [4]) of 50600 M⁻¹ s⁻¹.

B10: LHL-G1 (IgG) (antibody, V domains shown)
VH: B3 VH with H99S, W100Y, G101R, Y110F
VL: B6 VL with N93T, D95E
notes: as for B6
With B10 the koff (human KDR1 to 3 domain [4]) was 0.000251 s⁻¹ and the kon (human KDR1 to 3 domain [4]) was 73700 M⁻¹ s⁻¹.

B11: LH-E7 (scFv) (scFv, V domains shown)
VH: B3 VH
VL: B6 VL with N93R, N94I, D95A
In the case of B11, the koff (human KDR1 to 3 domain [3]) is reported as 0.000111 s⁻¹.

B12: LHL-G1 (scFv) (scFv, V domains shown)
VH: B3 VH with H99S, W100Y, G101R, Y110F
VL: B6 VL with N93T, D95E
B12 gave a koff (human KDR1 to 3 domain [3]) of 0.000239 s⁻¹.
